Test results: patent US5635597A (Affymax Technologies, N.V., priority 1994, dated 1997)
Blank lines part the entries; values can stand above or below the molecule they belong to. Where a SMILES comes first, the peptide text is derived from it.

What was measured:
IL-2Rβ = target: T1, IL-2Rβ (Homo sapiens, UniProt P14784); test: Colony lift procedure with tagged IL-2 receptors; type: binding
T1 construct: tag (kind not specified; detected enzymatically or on X-ray film)
T1 sequence (P14784 27-240 limits assumed): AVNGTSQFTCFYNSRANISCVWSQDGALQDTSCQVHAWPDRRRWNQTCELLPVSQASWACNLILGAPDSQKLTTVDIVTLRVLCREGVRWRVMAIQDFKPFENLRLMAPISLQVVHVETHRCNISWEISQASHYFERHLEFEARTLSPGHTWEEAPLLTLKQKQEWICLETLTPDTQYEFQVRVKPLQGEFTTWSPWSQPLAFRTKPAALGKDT
From the text: Peptides specific for the IL-2Rα, β and γ subunits were also discovered using a "colony lift" procedure, wherein cells were infected with DNA encoding for random amino acid sequences as described above. The phage was then allowed to grow on arabinose media to induce expression of the encoded peptides. […] The filters were washed and dried, and the tagged colonies were detected enzymatically, or by exposure to X-ray film, to identify those receptors which bound to the immobilized peptide-expressing phage particles.
Sequences which bound to IL-2Rβ have the general sequence RDCSX81AX82 LGELC, wherein X81 is V, E or D; and X82 is V or A. Preferred sequences are […], […] (SEQ ID NO: ), and […] (SEQ ID NO: ).

IL-2Rα = target: T2, IL-2Rα (Homo sapiens, UniProt P01589); test: Phage screen of αβ heterodimer in presence of β-specific peptides: specific binding to IL-2Rα
T2 construct: was produced in recombinant host cells in a truncated form; made in house; host or cells: recombinant host cells (baculovirus system or PIG-tailed CHO cells named as options)
T2 sequence (P01589 22-240 limits assumed): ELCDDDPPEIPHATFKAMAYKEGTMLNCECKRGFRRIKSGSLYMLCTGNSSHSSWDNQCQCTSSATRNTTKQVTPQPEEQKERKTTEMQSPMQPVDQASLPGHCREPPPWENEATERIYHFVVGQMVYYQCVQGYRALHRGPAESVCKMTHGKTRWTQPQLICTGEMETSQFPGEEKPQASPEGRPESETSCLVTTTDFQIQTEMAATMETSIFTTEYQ
Procedure: (§1) After several rounds of affinity enrichment, the phage or plasmids and accompanying peptides were examined by ELISA to determine if the peptides bind specifically to the receptor. This assay was carried out in a manner similar to the procedures used in the affinity enrichment process, except that after removing unbound phage (or plasmids), the wells were typically treated with rabbit anti-phage antibody, then with alkaline phosphatase (AP)-conjugated goat anti-rabbit antibody, or with anti-LacI-AP, and then the amount of alkaline phosphatase in each well was determined by standard methods. By comparing test wells with control wells containing an unrelated receptor, one can determine whether a peptide binds to IL-2Rα (or IL-2Rβ, γ, αβ, or βγ) specifically. Peptides found to bind specifically to the receptor were then synthesized as the free peptide (no phage) and tested for binding against (1) immobilized soluble receptor, (2) receptor expressed on the surface of cells, (3) the heterotrimer form of the receptor (i.e., IL-2Rαβγ) expressed on the surface of cells and (4) the two heterodimers IL-2Rαβ and IL-2Rβγ.
The αβ heterodimer was screened in the presence of each of the following peptides, […] (SEQ ID NO:65), […] (SEQ ID NO:66), […] (SEQ ID NO:67), […] (SEQ ID NO:68) and […] (SEQ ID NO:69) under standard conditions. […]

immobilized IL-2Rα = target: T3, immobilized IL-2Rα (Homo sapiens, UniProt P01589); test: Blocking of IL-2 binding to immobilized IL-2Rα
T3 construct: was produced in recombinant host cells in a truncated form; made in house; host or cells: recombinant host cells (baculovirus system or PIG-tailed CHO cells named as options)
T3 sequence (P01589 22-240 limits assumed): T2 sequence (P01589 22-240 limits assumed)

IL-2Rαβ heterodimer = target: T4, IL-2Rαβ heterodimer (Homo sapiens, UniProt P01589+P14784); test: pVIII 10-mer phage screen / ELISA against IL-2Rαβ heterodimer; type: binding; details: pVIII-bound 10-mers on phage
T4 construct: was produced in recombinant host cells in a truncated form; made in house; host or cells: recombinant host cells (baculovirus system or PIG-tailed CHO cells named as options)
T4 sequence (P01589 22-240 limits assumed): T2 sequence (P01589 22-240 limits assumed)
T4 sequence (P14784 27-240 limits assumed): T1 sequence (P14784 27-240 limits assumed)
From the text: (§2) In the systems employed, the random peptides were presented either on the surface of a phage particle, as part of a fusion protein comprising either the pIII or the pVIII coat protein of a phage fd derivative (peptides on phage), or as a fusion protein with LacI bound to a plasmid (peptides on plasmids). The phage or plasmids, including the DNA encoding the peptides, were identified and isolated by an affinity enrichment process using immobilized IL-2Rα, IL-2Rβ, IL-2Rγ and the αβ heterodimer. The affinity enrichment process, sometimes called "panning", involves multiple rounds of incubating the phage or plasmids with immobilized receptor, collecting the phage or plasmids that bind to the receptor (along with the accompanying DNA), and producing more of the phage or plasmids (along with accompanying LacI-peptide fusion protein) collected.
as §1
The immobilized receptor used in the affinity enrichment and ELISA procedures was produced in recombinant host cells in a truncated form. This truncated receptor molecule can be produced in a variety of different forms and host cells. One useful form of receptor is constructed by expressing the protein as a soluble protein in baculovirus transformed host cells using standard methods; another useful form is constructed with a signal peptide for protein secretion and for glycophospholipid membrane anchor attachment. This form of anchor attachment is called "PIG-tailing;"see Caras and Weddell, 3 Mar. 1989, Science 243:1196-1198, and Lin et al., 10 Aug. 1990, Science 249:677-679, each of which is incorporated herein by reference. Using the PIG-tailing system, one can cleave the receptor from the surface of the cells expressing receptor (e.g., transformed Chinese hamster ovary (CHO) cells selected for high level expression of receptor with a cell sorter) with phospholipase C. The cleaved receptor still comprises a carboxy terminal sequence of amino acids, called the "HPAP tail", from the signal for membrane attachment and can be immobilized without further purification.
The recombinant receptor protein was immobilized by coating the wells of microtiter plates with an anti-HPAP tail antibody, blocking with bovine serum albumin (BSA) in PBS, and then binding recombinant, truncated receptor to the antibody. Using this procedure, one should perform the immobilization reaction in varying concentrations of the receptor to determine the optimum amount for a given preparation, because different preparations of recombinant protein often contain different amounts of the desired protein. […] Otherwise, unblocked antibody can bind undesired phage during the affinity enrichment procedure. […]

α subunit = target: T5, α subunit (Homo sapiens, UniProt P01589); test: Phage ELISA competition against phage-bearing […]; type: binding; details: phage ELISA format against phage-bearing FVRCTASGCV
T5 construct: was produced in recombinant host cells in a truncated form; made in house; host or cells: recombinant host cells (baculovirus system or PIG-tailed CHO cells named as options)
T5 sequence (P01589 22-240 limits assumed): T2 sequence (P01589 22-240 limits assumed)
From the text: (§3) After several rounds of affinity enrichment, the phage or plasmids and accompanying peptides were examined by ELISA to determine if the peptides bind specifically to the receptor. […] By comparing test wells with control wells containing an unrelated receptor, one can determine whether a peptide binds to IL-2Rα (or IL-2Rβ, γ, αβ, or βγ) specifically.

immobilized IL-2Rβ = target: T6, immobilized IL-2Rβ (Homo sapiens, UniProt P14784); test: pVIII 12-mer phage screen against immobilized IL-2Rβ; type: binding; details: pVIII-bound 12-mers
T6 construct: was produced in recombinant host cells in a truncated form; made in house; host or cells: recombinant host cells (baculovirus system or PIG-tailed CHO cells named as options)
T6 sequence (P14784 27-240 limits assumed): T1 sequence (P14784 27-240 limits assumed)
From the text: as §2, §1

[1] = target: T7, immobilized IL-2Rγ monomer (Homo sapiens, UniProt P31785); test: Phage ELISA against immobilized IL-2Rγ monomer; type: binding; details: high receptor density
T7 construct: was produced in recombinant host cells in a truncated form; made in house; host or cells: recombinant host cells (not fixed)
T7 sequence (P31785 23-262 limits assumed): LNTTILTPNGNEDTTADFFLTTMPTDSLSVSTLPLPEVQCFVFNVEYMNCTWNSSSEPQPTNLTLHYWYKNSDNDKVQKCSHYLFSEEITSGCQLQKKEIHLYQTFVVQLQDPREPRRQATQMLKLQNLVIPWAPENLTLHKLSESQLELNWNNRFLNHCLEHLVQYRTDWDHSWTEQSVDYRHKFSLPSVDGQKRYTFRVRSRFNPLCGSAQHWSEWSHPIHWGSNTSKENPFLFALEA
Procedure: as §1
(§4) Random pVIII 10-mer and 11-mer libraries were also screened against immobilized IL-2Rγ monomer in a phage ELISA assay at high receptor density. […] These peptides also bound to the βγ-subunit and competed with radiolabelled ligand.

βγ-subunit [2] = target: T8, βγ-subunit (Homo sapiens, UniProt P14784+P31785); test: Binding to βγ-subunit and competition with radiolabelled ligand
T8 construct: was produced in recombinant host cells in a truncated form; made in house; host or cells: recombinant host cells (not fixed)
T8 sequence (P14784 27-240 limits assumed): T1 sequence (P14784 27-240 limits assumed)
T8 sequence (P31785 23-262 limits assumed): T7 sequence (P31785 23-262 limits assumed)
From the text: as §4

βγ-subunit [3] = target: T8, βγ-subunit; test: Phage-ELISA competition with phage bearing peptides, βγ-subunit; type: binding; details: phage-ELISA assay
From the text: as §3
Random pVIII 10-mer and 11-mer libraries were also screened against immobilized IL-2Rγ monomer in a phage ELISA assay at high receptor density.

β-subunit = target: T9, β-subunit (Homo sapiens, UniProt P14784); test: Blocking of IL-2 binding to the β-subunit
T9 construct: was produced in recombinant host cells in a truncated form; made in house; host or cells: recombinant host cells (baculovirus system or PIG-tailed CHO cells named as options)
T9 sequence (P14784 27-240 limits assumed): T1 sequence (P14784 27-240 limits assumed)

αβ [4] = target: T10, αβ (Homo sapiens, UniProt P01589+P14784); test: Binding to αβ subunits
T10 construct: was produced in recombinant host cells in a truncated form; made in house; host or cells: recombinant host cells (baculovirus system or PIG-tailed CHO cells named as options)
T10 sequence (P01589 22-240 limits assumed): T2 sequence (P01589 22-240 limits assumed)
T10 sequence (P14784 27-240 limits assumed): T1 sequence (P14784 27-240 limits assumed)
Procedure: as §1

βγ [5] = target: T11, βγ (Homo sapiens, UniProt P14784+P31785); test: Binding to βγ subunits
T11 construct: was produced in recombinant host cells in a truncated form; made in house; host or cells: recombinant host cells (not fixed)
T11 sequence (P14784 27-240 limits assumed): T1 sequence (P14784 27-240 limits assumed)
T11 sequence (P31785 23-262 limits assumed): T7 sequence (P31785 23-262 limits assumed)
Procedure: as §1

αβ [6] = target: T10, αβ; test: Competition against phage-borne […], αβ heterodimer; type: binding; details: free peptide
βγ [7] = target: T11, βγ; test: Competition against phage-borne […], βγ heterodimer; type: binding; details: free peptide

Molecule: RDCSDAVLEGLC
- binding to IL-2Rβ (IL-2Rβ): bound

Molecule: RDCSVAVLGELC
- binding to IL-2Rβ (IL-2Rβ): bound

Molecule: ARYGDVGSLV
- binding to the αβ heterodimer (IL-2Rαβ heterodimer): bound
- subunit specificity (IL-2Rαβ heterodimer): specific for the β subunit

Molecule: WDGPGLGEFF
- binding to the αβ heterodimer (IL-2Rαβ heterodimer): bound
- subunit specificity (IL-2Rαβ heterodimer): specific for the β subunit

Molecule: RACRVMPCLPDL
- subunit specificity of clones (immobilized IL-2Rβ): β-specific

Molecule: CSCC[C@H](N)C(=O)N[C@@H](CC(=O)O)C(=O)N[C@@H](CS)C(=O)N[C@@H](CO)C(=O)N[C@@H](CCC(=O)O)C(=O)N[C@@H](C)C(=O)N[C@H](C(=O)N[C@@H](CC(C)C)C(=O)NCC(=O)N[C@@H](CCC(=O)O)C(=O)N[C@@H](CC(C)C)C(=O)N[C@@H](CS)C(=O)O)C(C)C (H-MDCSEAVLGELC-OH; N-terminus and C-terminus assumed)
- subunit specificity of clones (immobilized IL-2Rβ): β-specific
- blocking IL-2 binding to the β-subunit (β-subunit): capable of blocking IL-2 binding
- binding to αβ subunits (αβ [4]): able to bind
- binding to βγ subunits (βγ [5]): able to bind
- competition against phage-born MDCSEAVLGELC for binding (αβ [6]): competitive
- competition against phage-born MDCSEAVLGELC for binding (βγ [7]): competitive

Molecule: SGCGRELDWC
- binding to the αβ heterodimer (IL-2Rαβ heterodimer): bound
- subunit specificity (IL-2Rαβ heterodimer): specific for the β subunit

Molecule: RWGDVGDMVV
- binding to the αβ heterodimer (IL-2Rαβ heterodimer): bound
- subunit specificity (IL-2Rαβ heterodimer): specific for the β subunit

Molecule: RDCSEARLGELC
- binding to IL-2Rβ (IL-2Rβ): bound

The next lines start with the values.

- specific binding to IL-2Rα (IL-2Rα): bound specifically
- concentration at which IL-2 binding to immobilized IL-2Rα was blocked (immobilized IL-2Rα): 330 µM
Molecule: EVICGTDGCW

- competition for binding with respect to the α subunit (α subunit): compete for binding
Molecule: FVRCTASGCV

- binding to the αβ heterodimer (IL-2Rαβ heterodimer): bound
- subunit specificity (IL-2Rαβ heterodimer): specific for the β subunit
Molecule: RYGEVGDLLP

- subunit specificity of clones (immobilized IL-2Rβ): β-specific
Molecule: HCLDMGCTFPVW

- subunit specificity of clones (immobilized IL-2Rβ): β-specific
Molecule: ARSDYGLGAIWP

- specific binding to IL-2Rγ [1]: bind to that subunit specifically
- binding to the βγ-subunit (βγ-subunit [2]): bound
- competition with radiolabelled ligand (βγ-subunit [2]; βγ-subunit): competed
- competition with phage bearing peptides in binding to the βγ-subunit (βγ-subunit [3]): compete
Molecule: CGTQEACFGLL

- specific binding to IL-2Rα (IL-2Rα): bound specifically
- concentration at which IL-2 binding to immobilized IL-2Rα was blocked (immobilized IL-2Rα): 110 µM
Molecule: SVRCSASGCV
